Test system: T1, His6-GacA (Acinetobacter baumannii (strain ATCC 17978?)), ORF:4711fff2
T1 sequence: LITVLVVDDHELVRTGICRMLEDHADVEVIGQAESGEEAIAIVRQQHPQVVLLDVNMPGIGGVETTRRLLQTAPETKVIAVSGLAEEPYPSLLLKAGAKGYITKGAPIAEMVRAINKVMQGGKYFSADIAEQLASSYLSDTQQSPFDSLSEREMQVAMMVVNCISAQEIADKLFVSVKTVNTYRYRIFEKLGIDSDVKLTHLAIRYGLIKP
Assay: EMSA
Details: 20 mM Tris pH 8.0, 150 mM NaCl, 10 mM EDTA, 100 ug/mL BSA, 20 mM acetyl phosphate, 10% glycerin, 1 mM DTT; ~10 nM probe; 20 min, room temperature; 6% native …

Sequence | binding
TTCTATAAATAAGAAATAAAGAATTTATTAATGCGTATAGTGCACAGCAAATATTATAAATTAATAAAGGTTGGTTAAAGGTTTGTTTTACAAGTATATGAAATGAATTAAAATTTTTTAATTTTATTTTTACGGTGTAAGCTTGTGATAAATAAAAATTAATAGCTAGAAAACTTATTTAAAACTTTTTAGTCTAATAGCATATTAAATTAAATTGAGCTTTATTATTTATAGCGAAATATATAACACTCGCTGAAACTTGGTTGATTTTTAATAATCAAGATAATAAAGGAAAAGGAT (double strand) [PDC promoter probe] | binds
CTCGTCATTATTAAGGCACGAGCTTGAATTAAACTGCACATCTAGTGTCAGTTGCTTATAGTGGCTATTGTCTTAGTATTTTTAAAAATCTGCAATATCTTTTTTTTAAAATTACCTAAGAAAATAAAAATATTTCAGAAAACTTTTTAGTTTTAAAAAATTTATAGTTTCTAATTATAAATAGCTTGCACAAAAAAACCAGCTTTAAAGCTGGTCTATTTTTAAATTATCACGGCGTATGAAGCTGTGTTTCCGTGTACGGACCTATTTCCGTTTCCTGTATTCCTCCGCTTCCGGAAT (double strand) [dotI promoter probe] | binds

Reference: PMC10746170
